Test results taken from the RNAGym collection of RNA variant scans (doi:10.1073/pnas.2313332121).

B1: TPR t1 (parent)
chain: GACCAAUCUGCCCUCAGAGCUCGAGAACAUCUUCGGAUGCAGAGGAGGCAGGCUUCGGUGGCGCGAUAGCGCCAACGUCCUCAACCUCCAAUGCAUCCCACCACAUGAUGAUGCCUGAAGAGCCUUGGUUUUUUG

Variants of: B1
Experiment: polymerase ribozyme fitness, log enrichment relative to wild type (log ratio); higher = more active; in vitro selection for triplet polymerase activity
Procedure, shortened: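 Input and output libraries were sequenced on Illumina after a single in vitro selection round, run in triplicate on PCR-built, transcribed mutant libraries of each subunit of a heterodimeric triplet polymerase ribozyme. Selection annealed libraries to a biotinylated primer, the partner subunit and triplets, incubated them frozen at −7 °C, then gel-excised extended constructs for streptavidin-bead capture and RT-PCR. Genotypes with ≥10 input reads and ≥1 read per output were kept. Fitness is the logarithm, taken in base 2, of genotype enrichment divided by wild-type enrichment, using inverse-variance-weighted replicate averages.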

Variant | polymerase ribozyme fitness (log ratio)
C13G G35C G47A C80U A105C G107U G117A | -7.66
C13G G36U A75G G77A C123U | -0.649
C13G G42A C85U C124G | -1.82
C13G G42U C49U G61U | -3.55
C13G G45U G71U C85A | -4.6
C13G G47A | -2.67
C13G G47U C114A | -4.31
C13G G48A C56A C73A | -3.11
C13G G48C G63U A105C C124A | -4.22
C13G G48C U106C U112G G122A G135A | -2.17
C13G G48U C53A U59G | -1.72
C13G G48U C64U | -2.15
C13G G51A C97U A111G U129A | -6.21
C13G G51C G69U U78G | -2.43
C13G G52A C72G C85A | -4.46
C13G G52C C86U A118G | -5.59
C13G G58C U92C | -3.7
C13G G58U G60C | -2.45
C13G G60C G77U C101A G120C | -1.78
C13G G61A | -1.99
C13G G61C | -2.94

Variant | polymerase ribozyme fitness (log ratio)
C13G G63A | -2.24
C13G G63C | -1.92
C13G G63C U112C G127C U129A | -2.13
C13G G63U | -2.53
C13G G69C C98U | -3.93
C13G G71A | -2.22
C13G G71C | -3.5
C13G G71C U125A G128C | -3.83
C13G G117U | -4
C13G U14A C64U C86A | -3.76
C13G U32C U78C | -2.51
C13G U54G | -1.83
C13G U59C C124A | 1.58
C13G U87C A121C | 0.326
C13G U112G | -0.767
C13U A16U C56U U129G | -0.207
C13U A18G A46C U96C A100C C123G | -4.57
C13U A18G C49G G77U | -4.43
C13U A18G G23A A46U A111G | -7.19
C13U A18G G36A G48U C72U A118U | -6.03
C13U A18G G52C | -3.22

Variant | polymerase ribozyme fitness (log ratio)
C13U A18U A118G | -1.84
C13U A18U G42C U87A C124U | 0.0751
C13U A24G A50U | -1.91
C13U A26U G69C | -4.28
C13U A27G G47A C64U | -3.03
C13U A29G A83G | -1.83
C13U A29G G52A C102U | -4.34
C13U A29U C56A G65A G77A | -6.34
C13U A29U C102U | -3.96
C13U A29U U78A C80U U96G U116G G120U G122A | -5.15
C13U A37C C40A C73A G93A G117U | -3.4
C13U A37G C101U | -0.644
C13U A37U G42U G63U C85U U112A | -3.9
C13U A41C G52U G60C G120A U126G | -1.71
C13U A41G A43C U87C G113A G122U | -1.25
C13U A41G C49A G52U | -1.15
C13U A41G G60U | -0.254
C13U A41U U126C | -2.14
C13U A46C | 0.0656
C13U A46U C56A C85U | -2.14
C13U A46U C72G G122A | -1.17

Variant | polymerase ribozyme fitness (log ratio)
C13U A46U U130G | -2
C13U A50G | -0.113
C13U A50G C70U C79U C86G G117A | -2.99
C13U A50G C85G C123G | -0.185
C13U A50G G52A G69A G77U | -2.68
C13U A50U C88G U112A G117A | -2.57
C13U A74C | 0.251
C13U A75G C76G U133A | -0.431
C13U A105U C115A A121U | 0.733
C13U C15A G60A G113C G135U | -7.27
C13U C15G A18U A66U | -5.7
C13U C15U U59A A84C A90C U106G U130A | -4.77
C13U C20G | -4.55
C13U C20G C64A C73U C104A G110U A121U | -7.37
C13U C20U C72A C76A | -2.68
C13U C20U G44U G47U | -3.8
C13U C20U G61U C114A | 0.523
C13U C20U U106A G120A | -1.72
C13U C22G A41U U78G U81C G122A | -4.41
C13U C34G U133A | -4.86
